Source: US20260266828A1, “BIOMARKERS FOR PREDICTING CANCER TREATMENT EFFICACY” (Arcus Biosciences, Inc., priority 2023, published 2026)

System: metastatic (Stage IV) squamous or non-squamous NSCLC
Assay: Randomized first-line trial: zimberelimab vs domvanalimab + zimberelimab vs etrumadenant + domvanalimab + zimberelimab; cORR and PFS in ITT and biomarker selected subsets
Format: in vivo, human
Conditions: for Events: PFS events; for HR vs. Low: PFS; for PFS: median
Procedure: The potential treatment benefit of zimberelimab monotherapy vs. domvanalimab plus zimberelimab combination therapy vs. etrumadenant plus domvanalimab plus zimberelimab combination therapy was evaluated in 150 people as a first-line treatment for metastatic (Stage IV) squamous or non-squamous NSCLC. Participants were randomized 1:1:1 across the three study arms and treated until disease progression or loss of clinical benefit. Arm 1 received zimberelimab 360 mg IV Q3W (Arm 1=Z). Arm 2 received domvanalimab 15 mg/kg IV Q3W and zimberelimab 360 mg IV Q3W (Arm 2=DZ). Arm 3 received domvanalimab 15 mg/kg IV Q3W, zimberelimab 360 mg IV Q3W, and etrumadenant 150 mg PO QD (Arm 3=EDZ). Participants in the zimberelimab monotherapy arm (Arm 1) with confirmed progression had the option to cross over to the triplet arm (Arm 3).
EGFR and ALK mutational testing was not required for participants with squamous histology.
The co-primary endpoints for this study were objective response rate (ORR) and progression free survival (PFS). ORR was defined as the percentage of participants with a best overall response (BOR) of either compete response (CR) or partial response (PR). Participants with measurable disease at baseline who discontinued prior to their first scheduled scan were considered non-responders. PFS was defined from the time of randomization until first documentation of disease progression, or death from any cause, whichever occurred first. In addition to the co-primary endpoints, disease control rate (DCR, defined as the percentage of participants with a BOR of CR, PR, or stable disease (SD) for >6 months), duration of response (DoR, defined as the time from first documentation of disease response (CR or PR) until first documentation of confirmed progressive disease) and overall survival (OS, defined as the time from randomization until death due to any cause) were also evaluated as exploratory endpoints. Efficacy analyses were based on the intent-to-treat (ITT) population, which comprises all randomized participants.
As part of an exploratory analysis, clinical outcomes in biomarker selected subsets were investigated retrospectively. Central submission of adequate tumor tissue and central confirmation of PD-L1 status was not required for study enrollment. Thus, the number of biomarker evaluable patients (BEP) varied by biomarker and was less than the ITT population. Expression levels of CD155, CD226, and CD73 were measured in baseline tumor biopsy samples (e.g., formalin-fixed, paraffin-embedded tissue or freshly cut, serial unstained sections), along with baseline expression level of PD-L1. The baseline samples were archival tumor samples obtained ≤24 months prior to screening or fresh biopsy samples obtained prior to the first dose of treatment. PD-L1 expression level in the BEP subset was measured at a central lab using the Ventana SP263 IHC assay, while enrollment in the trial was based on PD-L1 expression ([…] TC or TPS) locally assessed by Ventana SP263 assay or PharmDx 22C3 assay. CD155, CD226 and CD73 expression levels were measured at a central lab as described in Example L. PD-L1, CD155, CD226, and CD73 expression at baseline are summarized in Table 3. The best predictive biomarker of activity in Arm 1 was CD155 (e.g., CD155 low). At least three biomarkers (e.g., PD-L1 high, CD155 high, and CD73 low) enrich for clinical activity of domvanalimab and there was an even greater enhancement in patients that fulfill two of the biomarkers (analyses not shown).
Without rescoring CD155 intensity (i.e., using the original values scored by the pathologist), expression was characterized by two different scoring algorithms—namely, % TC and % TC 2-3+. The coefficient of determination (R^2 value) was used to look at the variance between each approach and CD155 expression characterization by H-scores. While % TC 2-3+ and H-score are highly concordant (R^2 value of 0.94), less concordance was observed between % TC and H-score (R^2 value of 0.71). […]

[1] = CD155 High (2+ or 3+ % TC ≥ 40%)
[2] = CD155 Low (2+ or 3+ % TC < 40%)

B1: zimberelimab (antibody, chains of the INN, looked up, V domains shown)
VH: QLQLQESGPGLVKPSETLTLTCTVSADSISSTTYYWVWIRQPPGKGLEWIGSISYSGSTYYNPSLKSRVTVSVDTSKNQFSLKLNSVAATDTALYYCARHLGYNGRYLPFDYWGQGTLVTVSS
VL: QSALTQPASVSGSPGQSITISCTGTSSDVGFYNYVSWYQQHPGKAPELMIYDVSNRPSGVSDRFSGSKSGNTASLTISGLQAEDEADYYCSSYTSISTWVFGGGTKLTVL
notes: zimberelimab monotherapy 360 mg IV Q3W; anti-PD-1 antibody
Q: How did the “Event Rate” value (BEP for CD155, unselected) turn out when B1 was run?
A: The value was 65%.

Q: What about the cORR (BEP for CD155, unselected) of the same molecule?
A: The cORR was 32%.

Q: And the cORR (CD73 High: ≥61% TC, BEP)?
A: The cORR was 42%.

Q: What about the cORR (CD73 Low: <61% TC, BEP) of the same molecule?
A: Its cORR is 12%.

Q: What about the “Event Rate” value [1] of the same molecule?
A: Its value is 82%.

Q: What about the cORR [1] of the same molecule?
A: Its cORR is 18%.

Q: What about the cORR (CD155 High: H-score ≥ 135, BEP) of the same molecule?
A: The cORR was 24%.

Q: And the “Event Rate” value [2]?
A: The value was 47%.

Q: And the cORR [2]?
A: Its cORR is 47%.

Q: And the cORR (CD155 Low: H-score < 135, BEP)?
A: Its cORR is 41%.

Q: What about the cORR (CD226 High: ≥4% IC, BEP) of the same molecule?
A: The cORR was 39%.

Q: What about the cORR (CD226 Low: <4% IC, BEP) of the same molecule?
A: Its cORR is 27%.

Q: And the “PFS Events (%)” value (ITT population)?
A: Its value is “(64%)”.

Q: And the “PFS Median” value (ITT population)?
A: The value was 5.4 mos.

Q: What about the “PFS Events” value (ITT population, number of events, n = 50 per arm) of the same molecule?
A: Its value is 32.

Q: And the cORR (ITT population, planned interim analysis)?
A: The cORR was 30%.

Q: And the cORR (PD-L1 High: ≥50% TC, BEP)?
A: Its cORR is 33%.

Q: And the cORR (PD-L1 Low: <50% TC, BEP)?
A: The cORR was 27%.

Q: And the Events (CD73 High: ≥61% TC, BEP)?
A: Its Events is 68%.

Q: And the Events (CD73 Low: <61% TC, BEP)?
A: The Events was 65%.

Q: And the Events (CD155 High: H-score ≥ 135, BEP)?
A: The Events was 82%.

Q: What about the Events (CD155 Low: H-score < 135, BEP) of the same molecule?
A: The Events was 47%.

Q: And the Events (CD226 High: ≥4% IC, BEP)?
A: The Events was 69%.

Q: And the Events (CD226 Low: <4% IC, BEP)?
A: Its Events is 73%.

Q: And the Events (PD-L1 High: ≥50% TC, BEP)?
A: Its Events is 67%.

Q: And the Events (PD-L1 Low: <50% TC, BEP)?
A: Its Events is 60%.

Q: What about the “HR vs. Low” value (CD73 High (≥61% TC) vs. Low within the arm) of the same molecule?
A: The value was 0.63.

Q: And the “HR vs. Low” value (CD155 High (H-score ≥ 135) vs. Low within the arm)?
A: The value was 0.38.

Q: What about the “HR vs. Low” value (CD226 High (≥4% IC) vs. Low within the arm) of the same molecule?
A: The value was 0.473.

Q: What about the “HR vs. Low” value (PD-L1 High (≥50% TC) vs. Low within the arm) of the same molecule?
A: The value was 1.04.

Q: What about the PFS (BEP for CD155, unselected) of the same molecule?
A: The PFS was 5.4 mo.

Q: What about the PFS (CD73 High: ≥61% TC, BEP) of the same molecule?
A: Its PFS is 9.6 mo.

Q: And the PFS (CD73 Low: <61% TC, BEP)?
A: Its PFS is 3.5 mo.

Q: And the PFS [1]?
A: Its PFS is 3.5 mo.

Q: What about the PFS (CD155 High: H-score ≥ 135, BEP) of the same molecule?
A: Its PFS is 3.5 mo.

Q: And the PFS [2]?
A: Its PFS is 9.7 mo.

Q: And the PFS (CD155 Low: H-score < 135, BEP)?
A: The PFS was 9.7 mo.

Q: And the PFS (CD226 High: ≥4% IC, BEP)?
A: Its PFS is 5.4 mo.

Q: What about the PFS (CD226 Low: <4% IC, BEP) of the same molecule?
A: The PFS was 2.7 mo.

Q: And the PFS (PD-L1 High: ≥50% TC, BEP)?
A: Its PFS is 5.7 mo.

Q: What about the PFS (PD-L1 Low: <50% TC, BEP) of the same molecule?
A: The PFS was 5.4 mo.
